Laboratory results from patent publication US20260049138A1 (Chugai, published 2026).

target: T1, CD3ε homodimer protein (human, UniProt P07766 23-126, limits assumed); experiment: SPR Biacore T200, CD3ε homodimer on chip;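 further: Light-chain single-residue variant antibodies injected over amine-coupled CD3ε homodimer on a CM4 chip at 25 °C, bound amount divided by that of the GLS3000-containing antibody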
T1 construct: also called CD3 (CD3ε)
T1 sequence (P07766 23-126 limits assumed): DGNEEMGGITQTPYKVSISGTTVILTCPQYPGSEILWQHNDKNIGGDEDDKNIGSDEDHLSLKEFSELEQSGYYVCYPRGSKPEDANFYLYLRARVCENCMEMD

Binder | ratio of amount bound vs unaltered GLS3000
GLS3000 K50E one-arm antibody (antibody, human IgG1, kappa, L234A L235A, N297A, name in Kabat numbering) heavy: QVQLVESGGGVVQPGRSLRLSCAASGFTFSNAWMHWVRQAPGKGLEWVAQIKAKSNNYATYYAESVKGRFTISRDDSKNSLYLQMNSLKTEDTAVYYCRYVHYGAYYGVDAWGQGTTVTVSSASTKGPSVFPLAPSSKSTSGGTAALGCLVKDYFPEPVTVSWNSGALTSGVHTFPAVLQSSGLYSLSSVVTVPSSSLGTQTYICNVNHKPSNTKVDKKVEPKSCDKTHTCPPCPAPEAAGGPSVFLFPPKPKDTLMISRTPEVTCVVVDVSHEDPEVKFNWYVDGVEVHNAKTKPREEQYASTYRVVSVLTVLHQDWLNGKEYKCKVSNKALPAPIEKTISKAKGQPREPQVYTLPPSRCELTKNQVSLSCAVKGFYPSDIAVEWESNGQPENNYKTTPPVLDSDGSFFLVSKLTVDKSRWQQGNVFSCSVMHEALHNHYTQKSLSLSPDYKDDDDK EPKSSDKTHTCPPCPAPELLGGPSVFLFPPKPKDTLMISRTPEVTCVVVDVSHEDPEVKFNWYVDGVEVHNAKTKPREEQYNSTYRVVSVLTVLHQDWLNGKEYKCKVSNKALPAPIEKTISKAKGQPREPQVCTLPPSRDELTKNQVSLWCLVKGFYPSDIAVEWESNGQPENNYKTTPPVLDSDGSFFLYSKLTVDKSRWQQGNVFSCSVMHEALHNRYTQKSLSLSP light: DIVMTQSPLSLPVTPGEPASISCRSSQSLVHSNRNTYLHWYQQKPGQAPRLLIYEVSNRFSGVPDRFSGSGSGTDFTLKISRVEAEDVGVYYCGQGTQVPYTFGQGTKLEIKRTVAAPSVFIFPPSDEQLKSGTASVVCLLNNFYPREAKVQWKVDNALQSGNSQESVTEQDSKDSTYSLSSTLTLSKADYEKHKVYACEVTHQGLSSPVTKSFNRGEC | 0.24
GLS3000 K50G one-arm antibody (antibody, human IgG1, kappa, L234A L235A, N297A, name in Kabat numbering) heavy: QVQLVESGGGVVQPGRSLRLSCAASGFTFSNAWMHWVRQAPGKGLEWVAQIKAKSNNYATYYAESVKGRFTISRDDSKNSLYLQMNSLKTEDTAVYYCRYVHYGAYYGVDAWGQGTTVTVSSASTKGPSVFPLAPSSKSTSGGTAALGCLVKDYFPEPVTVSWNSGALTSGVHTFPAVLQSSGLYSLSSVVTVPSSSLGTQTYICNVNHKPSNTKVDKKVEPKSCDKTHTCPPCPAPEAAGGPSVFLFPPKPKDTLMISRTPEVTCVVVDVSHEDPEVKFNWYVDGVEVHNAKTKPREEQYASTYRVVSVLTVLHQDWLNGKEYKCKVSNKALPAPIEKTISKAKGQPREPQVYTLPPSRCELTKNQVSLSCAVKGFYPSDIAVEWESNGQPENNYKTTPPVLDSDGSFFLVSKLTVDKSRWQQGNVFSCSVMHEALHNHYTQKSLSLSPDYKDDDDK EPKSSDKTHTCPPCPAPELLGGPSVFLFPPKPKDTLMISRTPEVTCVVVDVSHEDPEVKFNWYVDGVEVHNAKTKPREEQYNSTYRVVSVLTVLHQDWLNGKEYKCKVSNKALPAPIEKTISKAKGQPREPQVCTLPPSRDELTKNQVSLWCLVKGFYPSDIAVEWESNGQPENNYKTTPPVLDSDGSFFLYSKLTVDKSRWQQGNVFSCSVMHEALHNRYTQKSLSLSP light: DIVMTQSPLSLPVTPGEPASISCRSSQSLVHSNRNTYLHWYQQKPGQAPRLLIYGVSNRFSGVPDRFSGSGSGTDFTLKISRVEAEDVGVYYCGQGTQVPYTFGQGTKLEIKRTVAAPSVFIFPPSDEQLKSGTASVVCLLNNFYPREAKVQWKVDNALQSGNSQESVTEQDSKDSTYSLSSTLTLSKADYEKHKVYACEVTHQGLSSPVTKSFNRGEC | 0.16
GLS3000 K50L one-arm antibody (antibody, human IgG1, kappa, L234A L235A, N297A, name in Kabat numbering) heavy: QVQLVESGGGVVQPGRSLRLSCAASGFTFSNAWMHWVRQAPGKGLEWVAQIKAKSNNYATYYAESVKGRFTISRDDSKNSLYLQMNSLKTEDTAVYYCRYVHYGAYYGVDAWGQGTTVTVSSASTKGPSVFPLAPSSKSTSGGTAALGCLVKDYFPEPVTVSWNSGALTSGVHTFPAVLQSSGLYSLSSVVTVPSSSLGTQTYICNVNHKPSNTKVDKKVEPKSCDKTHTCPPCPAPEAAGGPSVFLFPPKPKDTLMISRTPEVTCVVVDVSHEDPEVKFNWYVDGVEVHNAKTKPREEQYASTYRVVSVLTVLHQDWLNGKEYKCKVSNKALPAPIEKTISKAKGQPREPQVYTLPPSRCELTKNQVSLSCAVKGFYPSDIAVEWESNGQPENNYKTTPPVLDSDGSFFLVSKLTVDKSRWQQGNVFSCSVMHEALHNHYTQKSLSLSPDYKDDDDK EPKSSDKTHTCPPCPAPELLGGPSVFLFPPKPKDTLMISRTPEVTCVVVDVSHEDPEVKFNWYVDGVEVHNAKTKPREEQYNSTYRVVSVLTVLHQDWLNGKEYKCKVSNKALPAPIEKTISKAKGQPREPQVCTLPPSRDELTKNQVSLWCLVKGFYPSDIAVEWESNGQPENNYKTTPPVLDSDGSFFLYSKLTVDKSRWQQGNVFSCSVMHEALHNRYTQKSLSLSP light: DIVMTQSPLSLPVTPGEPASISCRSSQSLVHSNRNTYLHWYQQKPGQAPRLLIYLVSNRFSGVPDRFSGSGSGTDFTLKISRVEAEDVGVYYCGQGTQVPYTFGQGTKLEIKRTVAAPSVFIFPPSDEQLKSGTASVVCLLNNFYPREAKVQWKVDNALQSGNSQESVTEQDSKDSTYSLSSTLTLSKADYEKHKVYACEVTHQGLSSPVTKSFNRGEC | 0.24
GLS3000 K50P one-arm antibody (antibody, human IgG1, kappa, L234A L235A, N297A, name in Kabat numbering) heavy: QVQLVESGGGVVQPGRSLRLSCAASGFTFSNAWMHWVRQAPGKGLEWVAQIKAKSNNYATYYAESVKGRFTISRDDSKNSLYLQMNSLKTEDTAVYYCRYVHYGAYYGVDAWGQGTTVTVSSASTKGPSVFPLAPSSKSTSGGTAALGCLVKDYFPEPVTVSWNSGALTSGVHTFPAVLQSSGLYSLSSVVTVPSSSLGTQTYICNVNHKPSNTKVDKKVEPKSCDKTHTCPPCPAPEAAGGPSVFLFPPKPKDTLMISRTPEVTCVVVDVSHEDPEVKFNWYVDGVEVHNAKTKPREEQYASTYRVVSVLTVLHQDWLNGKEYKCKVSNKALPAPIEKTISKAKGQPREPQVYTLPPSRCELTKNQVSLSCAVKGFYPSDIAVEWESNGQPENNYKTTPPVLDSDGSFFLVSKLTVDKSRWQQGNVFSCSVMHEALHNHYTQKSLSLSPDYKDDDDK EPKSSDKTHTCPPCPAPELLGGPSVFLFPPKPKDTLMISRTPEVTCVVVDVSHEDPEVKFNWYVDGVEVHNAKTKPREEQYNSTYRVVSVLTVLHQDWLNGKEYKCKVSNKALPAPIEKTISKAKGQPREPQVCTLPPSRDELTKNQVSLWCLVKGFYPSDIAVEWESNGQPENNYKTTPPVLDSDGSFFLYSKLTVDKSRWQQGNVFSCSVMHEALHNRYTQKSLSLSP light: DIVMTQSPLSLPVTPGEPASISCRSSQSLVHSNRNTYLHWYQQKPGQAPRLLIYPVSNRFSGVPDRFSGSGSGTDFTLKISRVEAEDVGVYYCGQGTQVPYTFGQGTKLEIKRTVAAPSVFIFPPSDEQLKSGTASVVCLLNNFYPREAKVQWKVDNALQSGNSQESVTEQDSKDSTYSLSSTLTLSKADYEKHKVYACEVTHQGLSSPVTKSFNRGEC | 0.3
